T1: ARG2 (Homo sapiens, UniProt P78540)
T1 sequence (P78540 23-354): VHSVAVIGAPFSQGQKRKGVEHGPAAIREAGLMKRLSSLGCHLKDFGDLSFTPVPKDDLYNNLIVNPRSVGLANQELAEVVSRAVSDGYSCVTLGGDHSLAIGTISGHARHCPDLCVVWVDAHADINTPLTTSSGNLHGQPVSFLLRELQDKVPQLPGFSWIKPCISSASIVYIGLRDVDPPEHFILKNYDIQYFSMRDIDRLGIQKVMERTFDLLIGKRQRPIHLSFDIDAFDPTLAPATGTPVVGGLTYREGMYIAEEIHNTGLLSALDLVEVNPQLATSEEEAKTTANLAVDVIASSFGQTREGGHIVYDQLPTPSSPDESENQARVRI

B1: C0021061: anti-ARG2 antibody, first generation lead, VH SEQ ID NO: 62, VL SEQ ID NO: 67 (antibody, listed as Homo sapiens, V domains shown)
VH: EVQLLESGGGLVQPGGSLRLSCAASGFTFSSYAMSWVRQAPGKGLEWVSAKPTDAGSTYYADSVKGRFTISRDNSKNTLYLQMNSLRAEDTAVYYCARLRADLGLYMDLWGRGTLVTVSS
VL: QSVLTQPPSVSAAPGQKVTISCSGSSSNIGNHYVSWYQQLPGTAPKLLIYNTVYPKSGIPDRFSGSKSGTSATLGITGLQTGDEADYYCGTWDSSLSALVFGGGTKLTVL
modifications: C0021061
B2: C0021065: anti-ARG2 antibody, VH SEQ ID NO: 72, VL SEQ ID NO: 77 (antibody, listed as Homo sapiens, V domains shown)
VH: EVQLLESGGGLVQPGGSLRLSCAASGFTFSSYAMSWVRQAPGKGPEWVSAISGFSPYYADSVKGRFTISRDNSRNTLYLQMNSLRAEDTAVYYCARLRADLGLYMDLWGRGTLVTVSS
VL: QSVLTQPPSVSAAPGQKVTISCSGSSSNIGNHYVSWYQQLPGTAPKLLIYDTDHMASGIPDRFSGSKSGTSATLGITGLQTGDEADYYCGTWDSSLSALVFGGGTKLTVL
modifications: C0021065
B3: C0021139: anti-ARG2 antibody, VH SEQ ID NO: 212, VL SEQ ID NO: 217 (antibody, listed as Homo sapiens, V domains shown)
VH: EVQLLESGGGLVQPGGSLRLSCAASGFTFQYDYQVWVRQAPGKGLEWVSAISGSGGSTYYADSVKGRFTISRDNSKNTLYLQMNSLRAEDTAVYYCARLRADLGLYMDLWGRGTLVTVSS
VL: QSVLTQPPSVSAAPGQKVTISCSGSSSNIGNHYVSWYQQLPGTAPKLLIYDNSERTSGIPDRFSGSKSGTSATLGITGLQTGDEADYYCGTWDELTSNLVFGGGTKLTVL
modifications: C0021139
B4: C0021133: anti-ARG2 antibody, VH SEQ ID NO: 192, VL SEQ ID NO: 197 (antibody, listed as Homo sapiens, V domains shown)
VH: EVQLLESGGGLVQPGGSLRLSCAASGFTFRYDHHVWVRQAPGKGLEWVSAISGSGGSTYYADSVKGRFTISRDNSKNTLYLQMNSLRAEDTAVYYCARLRADLGLYMDLWGRGTLVTVSS
VL: QSVLTQPPSVSAAPGQKVTVSCSGSSSNIGNHYVSWYQQLPGTAPKLLIYDTTVLSSGIPDRFSGSKSGTSATLGITGLQTGDEADYYCGTWDELTSNLVFGGGTKLTVL
modifications: C0021133
B5: C0021022: anti-ARG2 antibody, VH SEQ ID NO: 42, VL SEQ ID NO: 47 (antibody, listed as Homo sapiens, V domains shown)
VH: EVQLLESGGGLVQPGGSLRLSCAASGFTFSSYAMSWVRQAPGKGPEWVSAISGFSPYYADSVKGRFTISRDNSKNTLYLQMNSLRAEDTAVYYCARLRADLGLYMDLWGRGTLVTVSS
VL: QSVLTQPPSVSAAPGQKVTISCSGSSSNIGNHYVSWYQQLPGTAPKLLIYDNSERPSGIPDRFSGSKSGTSATLGITGLQTGDEADYYCGTWDSSLSALVFGGGTKLTVL
modifications: C0021022
B6: C0021092: anti-ARG2 antibody, VH SEQ ID NO: 92, VL SEQ ID NO: 97 (antibody, listed as Homo sapiens, V domains shown)
VH: EVQLLESGGGLVQPGGSLRLSCAASGFTFSRYAMSWVRQAPGKGLEWVSAHTHSPGSTYYADSVKGRFTISRDNSKNTLYLQMNSLRAEDTAVYYCARLRADLGLYMDLWGRGTLVTVSS
VL: QSVLTQPPSVSAAPGQKVTISCSGSSSNIGNHYVSWYQQLPGTAPKLLIYNSVARPSGIPDRFSGSKSGTSATLGITGLQTGDEADYYCGTWDSSLSALVFGGGTKLTVL
modifications: C0021092
B7: C0021158: anti-ARG2 antibody, second generation lead, VH SEQ ID NO: 272, VL SEQ ID NO: 277 (antibody, listed as Homo sapiens, V domains shown)
VH: EVQLLESGGGLVQPGGSLRLSCAASGFTFRYEVAAWVRQAPGKGLEWVSAISGPIPKGYYADSVKGRFTISRDNSKNTLYLQMNSLRAEDTAVYYCARLRADLGLYMDLWGRGTLVTVPS
VL: QSVLTQPPSVSAAPGQKVTISCSGSSSNIGNHYVSWYQQLPGTAPKLLIYDNSERTAGVPDRFSGSKSGTSATLGITGLQTGDEADYYCGTWDELTSNLVFGGGTKLTVL
modifications: C0021158
B8: C0021180: anti-ARG2 antibody, VH SEQ ID NO: 332, VL SEQ ID NO: 337 (antibody, listed as Homo sapiens, V domains shown)
VH: EVQLLESGGGLVQPGGSLRLSCAASGFTFRYEVAAWVRQAPGKGLEWVSAISGPIPKGYYADSVKGRFTISRDNSKNTLYLQMNSLRAEDTAVYYCARLRADLGLYMDLWGRGTLVTVSS
VL: QSVLTQPPTVSAAPGRKVTISCSGSSSNIGDHHVSWYQQLPGAAPKLLIYDTDHMASGIPDRFSGSRSGTSATLGITGLQTGDEADYYCGTWDSSLSALVFGGGTKLTVL
modifications: C0021180
B9: C0021177: anti-ARG2 antibody, VH SEQ ID NO: 322, VL SEQ ID NO: 327 (antibody, listed as Homo sapiens, V domains shown)
VH: EVQLLESGGGLVQPGGSLRLSCAASGFTFRYEVAAWVRQAPGKGLEWVSAISGPAPKGYYADSVKGRFTISRDNSKNTLYLQMNSLRAEDTAVYYCARLRADLGLYMDLWGRGTLVTVSS
VL: QSELTQPPTASAAPGQKVTISCSGSSSNIGNHYVSWYQQLPGTAPKLLIYDTTVLSSGIPDRFSGSKSGTSATLGITGLQTGDEADYYCGTWDELTSNLVFGGGTKLTVL
modifications: C0021177

Results on 9 molecules are retold here after US20220403048A1, “BINDING MOLECULES TO ARGINASE II [ARG2]” (Cancer Research Technology Limited, priority 2019, published 2022).

A value given as a limit tells only on which side of the number the result lay.

The target in the first assay is T1, ARG2. Briefly: T cell proliferation assay (BrdU, 96 hours) with exogenous ARG2, improved variant IgGs. The format is cell-based. The following applies: In Absence of rhARG2; 96 hours; hIgG1. How it is done:
This assay served to provide evidence of improved functional efficacy for each affinity-matured antibody in comparison to the parent IgG, C0020187 (FIG. 12).
Lead optimisation clones were tested to an endpoint treatment time of 96 hours and the BrdU Cell Proliferation Kit (Roche, France; Cat: 11647229001) was used according to the manufacturer's instructions. R347 was used as the irrelevant control. All clones tested n=2.
Leukocyte cones underwent Ficoll Plaque (GE, Sweden; Cat: 17-1440-02) gradient separation, PBMC's were extracted and pan T cell population isolated by negative selection using the Human T Cell Enrichment Kit (Stemcell Technologies, France; Cat: 19051) according to the manufacturer's instructions.
40000 cells/well were seeded in complete growth media (RMPI 1640, 5% Human Serum Albumin) into a 96 well clear TC treated microplate (Greiner-Bio One, Germany; Cat: 655180). T cells were activated by the addition of ImmunoCult CD3/CD28 (Stemcell Technologies, France; Cat: 10971) at a dilution of 1:40 directly into wells and the plate incubated 37° C., 5% CO2 for 45 minutes.
To determine EC50's of test antibodies, a dilution series was created in sterile TBS/NaCl Buffer at 10× the final assay concentration added to the assay plate containing cells. Plate was incubated for 30 minutes at 37° C., 5% CO2.
ARG2 was added to relevant wells of the plate at a final concentration of 15 μg/ml. The equivalent volume of ARG2 vehicle and test antibody vehicle was added to relevant control wells. The total volume in each well was 200 μl. Cells were treated with test antibodies for a total of 96 hours at 37° C., 5% CO2. Antibodies were tested alongside C0020187 (parent IgG) as a positive control and R347 (irrelevant isotype control antibody) as a negative control.
Assessment of T cell proliferation was performed using the BrdU Cell Proliferation ELISA Kit (Roche, Germany; Cat: 000000011647229001). BrdU labelling reagent was added after 78 hours of antibody treatment and the plate further incubated for 18 hours at 37° C., 5% CO2. The remainder of the assay was performed according to the manufacturer's instructions.
Calculated data was expressed as % of control (Equation 3) and graphical plots were constructed using a four parameter fit and EC50's determined using model 205 in XLFit (IDBS, UK).
All test sample data was corrected for background (mean of no cell control)
% Control=100*((Test Sample−Mean Positive Control)/(Mean Negative Control−Mean Positive Control)) Equation 3:
Mean Positive Control=T Cells in absence of ARG2
Mean Negative Control=T Cells in presence of ARG2
This assay served to provide evidence of improved functional efficacy for each affinity-matured antibody in comparison to the parent IgG, C0020187 (FIG. 14, Table 19). R347 was used as the irrelevant control. All clones tested n=2. Reference section 2.9 for methodology.
Consider B1, for which the EC50 is below 900 pM and the “Maximum % Proliferation” value was 99%.

For B2, the EC50 was below 900 pM and the “Maximum % Proliferation” value was found to be 101%.

As to B3, the EC50 is below 1000 pM and the “Maximum % Proliferation” value amounted to 84%.

Take B4: the EC50 is below 700 pM and the “Maximum % Proliferation” value is 90%.

As for B5, the EC50 was below 1000 pM.

Consider B6, for which the EC50 is below 900 pM and the “Maximum % Proliferation” value is recorded as 92%.

The assay is the same for the next values; noted with them: In Absence of rhARG2; hIgG1; top conc 2 μM; n=2.
Turning to B7, the 50% effective concentration (EC50) is below 900 pM and the “Maximum % Proliferation” value came to 94%.

For B8, the EC50 is below 900 pM and the “Maximum % Proliferation” value turned out to be 96%.

For B9, the EC50 is below 900 pM and the “Maximum % Proliferation” value is on record as 90%.

With B1, the EC50 was below 900 pM and the “Maximum % Proliferation” value was found to be 93%.
